Patent publication US12723078

Assays:
[1] = target: LILRB2 on reporter cells (UniProt Q8N423); experiment: flow cytometry on 2B4 cells expressing the LILR, PE
[2] = target: LILRB5 on reporter cells (UniProt O75023); experiment: as above
[3] = target: LILRA4 on reporter cells (UniProt P59901); experiment: as above
[4] = target: LILRB3 on reporter cells (UniProt O75022); experiment: as above
[5] = target: LILRA1 on reporter cells (UniProt O75019); experiment: as above
[6] = target: LILRA6 on reporter cells (UniProt Q6PI73); experiment: as above
[7] = target: LILRA2 on reporter cells (UniProt Q8N149); experiment: as above
[8] = target: LILRA5 on reporter cells (UniProt A6NI73); experiment: as above
[9] = target: LILRB1 expressed on cell surface (human) (UniProt Q8NHL6); experiment: as above
[10] = target: LILRB4 on reporter cells (UniProt Q8NHJ6); experiment: as above
[11] = target: recombinant LILRB1 (human) (UniProt Q8NHL6); experiment: ELISA, control
[12] = target: recombinant LILRB1 (human) (UniProt Q8NHL6); experiment: Octet RED96, LILRB1 at 100, 33.3, 11.1 and 3.7 nM

LILRB2 on reporter cells, sequence (Q8N423 22-597): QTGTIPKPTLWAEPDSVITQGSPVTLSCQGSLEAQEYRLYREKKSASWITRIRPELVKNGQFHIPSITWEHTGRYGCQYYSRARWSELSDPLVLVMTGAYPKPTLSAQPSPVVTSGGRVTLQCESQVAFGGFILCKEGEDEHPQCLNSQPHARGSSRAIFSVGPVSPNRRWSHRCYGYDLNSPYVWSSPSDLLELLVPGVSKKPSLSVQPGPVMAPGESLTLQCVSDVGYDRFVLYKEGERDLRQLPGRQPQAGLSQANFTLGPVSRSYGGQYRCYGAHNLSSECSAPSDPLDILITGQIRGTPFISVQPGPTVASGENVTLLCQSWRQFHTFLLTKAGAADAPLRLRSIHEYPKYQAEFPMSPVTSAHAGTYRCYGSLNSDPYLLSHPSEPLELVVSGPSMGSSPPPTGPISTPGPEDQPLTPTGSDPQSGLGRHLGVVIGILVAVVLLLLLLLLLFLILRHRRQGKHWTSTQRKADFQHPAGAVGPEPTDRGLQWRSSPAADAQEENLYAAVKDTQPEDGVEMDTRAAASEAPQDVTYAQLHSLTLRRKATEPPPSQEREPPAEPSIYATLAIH
LILRB1 expressed on cell surface (human), sequence (Q8NHL6 24-650 limits assumed): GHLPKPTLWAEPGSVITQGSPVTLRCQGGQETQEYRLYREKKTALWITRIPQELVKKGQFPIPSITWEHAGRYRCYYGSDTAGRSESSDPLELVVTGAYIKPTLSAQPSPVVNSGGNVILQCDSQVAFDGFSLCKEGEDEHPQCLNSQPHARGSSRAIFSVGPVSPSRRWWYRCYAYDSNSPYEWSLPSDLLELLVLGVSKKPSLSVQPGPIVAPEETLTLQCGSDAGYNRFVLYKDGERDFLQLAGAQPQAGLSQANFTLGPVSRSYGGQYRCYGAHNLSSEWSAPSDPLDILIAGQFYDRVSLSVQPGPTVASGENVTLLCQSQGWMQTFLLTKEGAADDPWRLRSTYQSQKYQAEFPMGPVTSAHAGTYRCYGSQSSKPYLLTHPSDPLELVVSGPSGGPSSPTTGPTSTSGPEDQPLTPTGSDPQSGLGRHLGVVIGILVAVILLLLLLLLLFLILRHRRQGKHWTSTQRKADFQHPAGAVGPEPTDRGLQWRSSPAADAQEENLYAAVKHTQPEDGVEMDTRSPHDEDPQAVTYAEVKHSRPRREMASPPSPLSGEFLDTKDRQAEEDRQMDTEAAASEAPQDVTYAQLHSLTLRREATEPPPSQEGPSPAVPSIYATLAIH
LILRA1 on reporter cells, sequence (O75019 17-489 limits assumed): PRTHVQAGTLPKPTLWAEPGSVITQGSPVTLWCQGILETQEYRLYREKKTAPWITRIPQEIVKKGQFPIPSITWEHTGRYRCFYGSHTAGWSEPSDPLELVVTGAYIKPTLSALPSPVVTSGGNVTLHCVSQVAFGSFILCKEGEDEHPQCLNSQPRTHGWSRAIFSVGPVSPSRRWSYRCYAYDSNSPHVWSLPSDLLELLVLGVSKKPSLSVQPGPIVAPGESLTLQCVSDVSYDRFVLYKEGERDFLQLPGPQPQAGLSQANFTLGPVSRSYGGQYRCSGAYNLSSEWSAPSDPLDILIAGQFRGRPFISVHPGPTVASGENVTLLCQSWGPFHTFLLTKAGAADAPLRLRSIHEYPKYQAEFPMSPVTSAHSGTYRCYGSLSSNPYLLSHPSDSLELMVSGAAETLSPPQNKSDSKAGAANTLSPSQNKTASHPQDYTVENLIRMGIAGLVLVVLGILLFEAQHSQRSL
LILRA2 on reporter cells, sequence (Q8N149 24-483): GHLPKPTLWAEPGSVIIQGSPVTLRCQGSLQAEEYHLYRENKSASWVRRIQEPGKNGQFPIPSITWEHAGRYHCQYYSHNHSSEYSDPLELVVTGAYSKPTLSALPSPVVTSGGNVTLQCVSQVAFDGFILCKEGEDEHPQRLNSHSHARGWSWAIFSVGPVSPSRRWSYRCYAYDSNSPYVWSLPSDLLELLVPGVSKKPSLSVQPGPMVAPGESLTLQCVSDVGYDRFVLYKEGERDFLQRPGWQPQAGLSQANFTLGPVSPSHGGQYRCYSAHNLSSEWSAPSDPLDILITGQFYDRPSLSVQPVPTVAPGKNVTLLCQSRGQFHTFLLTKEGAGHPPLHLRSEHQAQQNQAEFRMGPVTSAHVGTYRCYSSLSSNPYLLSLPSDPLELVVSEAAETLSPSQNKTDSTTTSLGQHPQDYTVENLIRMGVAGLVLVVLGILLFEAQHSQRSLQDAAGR
LILRA6 on reporter cells, sequence (Q6PI73 24-481): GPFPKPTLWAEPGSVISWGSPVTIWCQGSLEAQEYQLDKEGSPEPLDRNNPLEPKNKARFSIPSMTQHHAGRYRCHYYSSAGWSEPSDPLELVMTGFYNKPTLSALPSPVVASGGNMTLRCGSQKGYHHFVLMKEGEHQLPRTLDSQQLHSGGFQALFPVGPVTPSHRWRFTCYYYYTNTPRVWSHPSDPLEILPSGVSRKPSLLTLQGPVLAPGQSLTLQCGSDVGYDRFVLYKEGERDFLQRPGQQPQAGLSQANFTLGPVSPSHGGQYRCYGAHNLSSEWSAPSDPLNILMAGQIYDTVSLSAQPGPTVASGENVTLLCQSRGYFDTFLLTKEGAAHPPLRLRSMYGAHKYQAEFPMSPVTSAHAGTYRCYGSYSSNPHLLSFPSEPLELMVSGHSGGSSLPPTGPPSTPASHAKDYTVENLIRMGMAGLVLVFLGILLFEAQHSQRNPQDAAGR
LILRA5 on reporter cells, sequence (A6NI73 42-299): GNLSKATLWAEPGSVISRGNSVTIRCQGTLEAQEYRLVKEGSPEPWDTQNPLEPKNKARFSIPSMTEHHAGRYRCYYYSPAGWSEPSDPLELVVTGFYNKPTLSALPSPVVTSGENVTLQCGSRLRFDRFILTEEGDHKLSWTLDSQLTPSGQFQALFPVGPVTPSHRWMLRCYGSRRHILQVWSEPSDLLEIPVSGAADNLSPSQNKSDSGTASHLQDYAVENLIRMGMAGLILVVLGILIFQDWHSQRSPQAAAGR
recombinant LILRB1 (human), sequence (Q8NHL6 24-461 limits assumed): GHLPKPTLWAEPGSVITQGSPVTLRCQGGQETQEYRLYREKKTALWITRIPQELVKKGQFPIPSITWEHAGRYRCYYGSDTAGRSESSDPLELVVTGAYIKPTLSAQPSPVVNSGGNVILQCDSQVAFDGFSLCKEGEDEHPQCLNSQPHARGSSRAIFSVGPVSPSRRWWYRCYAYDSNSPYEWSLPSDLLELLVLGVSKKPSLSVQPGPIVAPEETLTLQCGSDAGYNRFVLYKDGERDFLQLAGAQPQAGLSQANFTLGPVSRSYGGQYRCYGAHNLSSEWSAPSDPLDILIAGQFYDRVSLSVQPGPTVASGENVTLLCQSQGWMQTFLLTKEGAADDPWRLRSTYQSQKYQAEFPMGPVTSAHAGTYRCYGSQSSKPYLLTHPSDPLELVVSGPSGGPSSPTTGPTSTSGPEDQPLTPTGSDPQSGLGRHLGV
LILRA4 on reporter cells, sequence (P59901 24-499): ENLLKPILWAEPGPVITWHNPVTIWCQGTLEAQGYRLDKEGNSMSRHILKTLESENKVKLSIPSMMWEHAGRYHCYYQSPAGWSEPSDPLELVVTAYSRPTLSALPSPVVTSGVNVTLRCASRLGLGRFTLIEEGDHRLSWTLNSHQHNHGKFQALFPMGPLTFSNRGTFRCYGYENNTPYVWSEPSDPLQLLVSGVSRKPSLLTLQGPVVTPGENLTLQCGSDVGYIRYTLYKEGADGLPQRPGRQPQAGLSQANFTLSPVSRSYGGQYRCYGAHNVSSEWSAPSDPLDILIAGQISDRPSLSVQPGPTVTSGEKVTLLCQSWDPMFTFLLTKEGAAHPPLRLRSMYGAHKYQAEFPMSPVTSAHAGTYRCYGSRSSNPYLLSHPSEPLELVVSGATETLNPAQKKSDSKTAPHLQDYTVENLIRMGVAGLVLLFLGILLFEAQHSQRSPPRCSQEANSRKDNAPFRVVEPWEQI
LILRB5 on reporter cells, sequence (O75023 24-590 limits assumed): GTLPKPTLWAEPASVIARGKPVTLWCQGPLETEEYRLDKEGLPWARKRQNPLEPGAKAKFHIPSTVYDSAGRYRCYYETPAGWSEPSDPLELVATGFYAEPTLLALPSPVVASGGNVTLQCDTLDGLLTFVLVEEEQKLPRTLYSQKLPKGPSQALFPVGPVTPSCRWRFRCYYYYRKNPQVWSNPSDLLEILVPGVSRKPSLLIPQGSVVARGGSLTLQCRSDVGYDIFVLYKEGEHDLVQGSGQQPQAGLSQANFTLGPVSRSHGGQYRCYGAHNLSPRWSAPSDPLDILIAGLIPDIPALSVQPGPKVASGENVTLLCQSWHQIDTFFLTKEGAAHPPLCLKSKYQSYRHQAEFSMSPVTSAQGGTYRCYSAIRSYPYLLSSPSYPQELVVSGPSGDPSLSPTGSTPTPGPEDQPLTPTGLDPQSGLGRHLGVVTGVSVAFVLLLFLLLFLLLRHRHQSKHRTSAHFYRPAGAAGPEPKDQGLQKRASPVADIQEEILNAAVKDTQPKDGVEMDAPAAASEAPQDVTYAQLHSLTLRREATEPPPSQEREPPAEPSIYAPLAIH

Substance	percent of cells in the gate [1] [%]	percent of cells in the gate [2] [%]	percent of cells in the gate [3] [%]	percent of cells in the gate [4] [%]	percent of cells in the gate [5] [%]	percent of cells in the gate [6] [%]	percent of cells in the gate [7] [%]	percent of cells in the gate [8] [%]	percent of cells in the gate [9] [%]	percent of cells in the gate [10] [%]	OD450 [11] [OD450]	Kd [12] [nM]
R&D 292319 (antibody)	0.65	0.359	0.27	0.239	0.249	0.199	0.334	0.282	96.3	0.466		
Ctrl											0.1	
GHI/75 (commercial anti-LILRB1 monoclonal antibody)	1.58	0.558	0.16	0.867	1.22	0.273	1.25	0.219	98.8	0.524		5.13
HP-F1 (commercial anti-LILRB1 monoclonal antibody)	1.52	0.0127	0.301	0.196	80.8	0.144	85.3	0.343	98.5	0.0568		8.26
